We go through nine molecules from patent US20200362047A1 (CRESCENDO BIOLOGICS, published 2020).

Substitutions are numbered along the chain they refer to.

T1: rhesus CD137Fc recombinant protein (Sino Biologicals cat no. 90847-K02H) (rhesus; human, UniProt H9Z8K9 24-186)
T1 construct: Bought protein; also called rhesus CD137-human IgG1 Fc tagged protein; not shown: human IgG1 Fc tag
T1 sequence: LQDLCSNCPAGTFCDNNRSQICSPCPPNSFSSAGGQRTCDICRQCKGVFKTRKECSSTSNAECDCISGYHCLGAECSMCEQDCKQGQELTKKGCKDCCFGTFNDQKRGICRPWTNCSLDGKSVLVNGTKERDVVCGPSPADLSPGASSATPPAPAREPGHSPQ

T2: mouse CD137Fc protein (Acro Biosystems 41B-M5258) (mouse, UniProt P20334 24-187)
T2 construct: Bought protein; also called mouse CD137 protein; not shown: Fc tag, detected with anti human-Fc
T2 sequence (looked up): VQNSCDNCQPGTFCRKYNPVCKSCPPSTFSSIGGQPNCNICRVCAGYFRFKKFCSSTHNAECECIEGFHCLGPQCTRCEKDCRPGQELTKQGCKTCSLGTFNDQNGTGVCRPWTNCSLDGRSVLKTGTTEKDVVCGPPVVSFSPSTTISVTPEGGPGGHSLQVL

T3: human GITR-Fc (R&D Systems cat no. 689-GR) (human, UniProt Q9Y5U5 26-161)
T3 construct: Bought protein; also called GITR (Glucocorticoid-induced TNFR-related); not shown: Fc tag
T3 sequence (looked up): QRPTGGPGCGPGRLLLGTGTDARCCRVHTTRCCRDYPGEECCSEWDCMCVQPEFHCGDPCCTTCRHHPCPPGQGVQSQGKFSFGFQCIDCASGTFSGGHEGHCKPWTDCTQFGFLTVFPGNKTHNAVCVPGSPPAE

B1: Humabody VH 2.1 (VHH)
VH: EVQLVESGGGLVKPGGSLRVSCAASGFTFSDYYMSWFRQAPGKGLEWVSYISGSGDIIDYADSVKGRFTISRDNAKNSLYLQMNNLRAEDTAVYHCAREDSRLTGTTDFDNWGQGTLVTVSSHHHHHH
notes: human single VH domain
B2: Humabody VH 2.8 (VHH)
VH: B1 VH with V20L, T28A, Y50H, D56T, I57T, N85S, L103M, T104P
notes: human single VH domain
B3: Humabody VH 2.14 (VHH)
VH: EVQLVESGGGLVKPGGSLRLSCAASGFTFSDYYMTWFRQAPGKGLEWISYISGSGDTIDYAESVKGRFTISRDNAKNSLYLQMNSLRAEDTAVYYCAREDIRMPGTTDFDHWGQGTLVTVSSHHHHHH
notes: human single VH domain
B4: Humabody VH 1.52 (VHH)
VH: EVQLVESGGGLVQIGGSLRLSCAASGFTFSKYWMIWVRQAPEKGLEWVANINQDGSEKYYVDSVEGRFTISRDNANNSLFLQMNSLRAEDTAVYYCARGGDDYSISHFGMDVSGQGTRVTVSSHHHHHH
notes: human single VH domain
B5: Humabody VH 1.11 (VHH)
VH: EVQLVESGGGLVQPGGSLRLSCEASGFTFSDYWMNWARQAPGKGLEWVANIKEDGSEKYYVDSVEGRFTISRDNAKNSTYLQMNSLRAEDTAVYYCARGGAGYSMSHYGMDVWGQGTTVTVSSHHHHHH
notes: human single VH domain
B6: Humabody VH 1.18 (VHH)
VH: EVQLVESGGGLVQPGGSLRLSCAASGFTFSTHWMNWARQAPGKELEWVANINQDGSEKYYVDSVEGRFTISRDNANNSLYLQMNSLRAEDTAVYYCARGGVGYGDSHFGMDVWGLGTTVTVSSHHHHHH
notes: human single VH domain
B7: Humabody VH 1.78 (VHH)
VH: QVQLVESGGGLVQPGGSLRLSCAATGFTLSNYWMNWVRQAPGKGLEWVANINQDGSERYYVDSVKGRFTISRDNAKNSLYLQMSSLRAEDTAVYFCARGGEGYGVDHYGLDVSGQGTTVTVSSHHHHHH
notes: human single VH domain
B8: Humabody VH 1.1 (VHH)
VH: EVQLVESGGGLVQPGGSLRLSCAASGFTFSSHWMTWFRQAPGKGLEWVAHIKEDGSEKYYEDSVEGRFTVSRDNAKNSVYLQMNSLRAEDTAVYYCARGGDGYSDSHFGVDVWGQGTTVTVSSHHHHHH
notes: human single VH domain; also called single domain antibody 1.1
B9: Humabody VH 2.9 (VHH)
VH: B3 VH with Y95H, I101S, M103I, P104A, H111N, Q114P
notes: human single VH domain

The target of one assay is T4, human CD137-human Fc chimeric protein (Acro Biosystems cat no. 41B-H5258) (human, UniProt Q07011 24-186).
T4 construct: Bought protein; The Octet Protein G and Biacore experiments name no catalogue number; also called human CD137Fc recombinant protein; human CD137-Fc recombinant protein; not shown: human IgG1 Fc tag
Kind of assay: BLI (Octet RED384), CD137-Fc on Protein G sensors, 1:1 model. On the procedure:
Binding kinetics of purified VH, bivalent VH and trivalent VH molecules were measured on a ForteBio Octet RED 384 instrument. CD137-Fc tagged protein was diluted to 3 μg/ml in kinetics buffer (0.1% BSA, 0.02% Tween, 1×PBS) and coupled to Protein G biosensors (ForteBio cat no. 18-5082) via the Fc tag. VH were serially diluted (typically 1:2 dilution series starting with 50 nM, VH at the highest concentration) and binding to the CD137-Fc-coupled Protein G biosensors measured. Binding kinetics were determined from the (blank subtracted) sensor gram trace using 1:1 binding models and ForteBio Octet Data Analysis 9.0 software. Example kinetic and binding affinity data obtained is shown Table 10 (monovalent VH) and FIG. 1 (bivalent and trivalent molecules).
A general note: In BLI a coated tip is dipped into the sample, and binding shifts an interference pattern.
The term Kd denotes the constant that tells how readily two partners part at equilibrium. A word on the koff: it is a measure of how fast the partners let go of each other. A higher koff goes with a short-lived complex. Usually kon stands for the second-order rate constant of association. Read a high kon as fast association. B1 came in with a Kd of 2.9 nM, a koff of 0.00388 s⁻¹ and a kon of 1.35e+06 M⁻¹ s⁻¹.

Molecule B2 gave a Kd of 5.3 nM, a koff of 0.00616 s⁻¹ and a kon of 1.17e+06 M⁻¹ s⁻¹.

Molecule B3 had a Kd of 0.96 nM, a koff of 0.00157 s⁻¹ and an on-rate constant (kon) of 1.63e+06 M⁻¹ s⁻¹.

The molecule B4 returned a Kd of 3.2 nM, a koff of 0.000963 s⁻¹ and a kon of 300000 M⁻¹ s⁻¹.

Regarding B5, the Kd stood at 2.5 nM, the koff turned out to be 0.00148 s⁻¹ and the kon stood at 596000 M⁻¹ s⁻¹.

Consider B6, for which binding was characterised by a dissociation constant (Kd) of 0.12 nM, the koff worked out at 0.000625 s⁻¹ and the association rate constant (kon) stood at 5.18e+06 M⁻¹ s⁻¹.

In turn, B7 displayed a Kd of 0.72 nM, an off-rate (koff) of 0.000219 s⁻¹ and a kon of 304000 M⁻¹ s⁻¹.

Regarding B8, the Kd amounted to 0.34 nM, the koff came to 0.00034 s⁻¹ and the kon was 989000 M⁻¹ s⁻¹.

The target in another assay is T1, rhesus CD137Fc recombinant protein …. Kind of assay: HTRF binding assay. On the procedure: (§1) Binding to human CD137Fc recombinant protein (Acro Biosystems 41B-H5258), rhesus CD137Fc recombinant protein (Sino Biologicals cat no. 90847-K02H) and mouse CD137Fc protein (Acro Biosystems 41B-M5258) was measured using an HTRF Binding assay format. All reagents and serially diluted VH were prepared in assay buffer containing PBS, 0.1% BSA and 0.4M Potassium Fluoride. Samples or assay buffer (non-specific binding) were incubated with 0.5 nM human, rhesus or mouse CD137, 1 nM Anti human-Fc Cryptate PAb (Cisbio cat. no. 61HFCKLB) and 20 nM anti His-D2 (CisBio cat no 61HISDLA) in black 384-shallow well assay plates for a minimum of 3 hours at room temperature. Time-resolved fluorescent emission at 620 nm and 665 nm was measured following excitation at 337 nm on the BMG PHERAstar plate reader. The HTRF ratio were calculated ((665 nm emission/620 nm emission)*10000) and the data corrected for (non-specific binding) to give the specific binding signal. VH bound to human and rhesus CD137 but not to mouse CD137 protein.
On the technique in general: TR-FRET usually uses a lanthanide donor and a delayed reading to cut background.
Broadly, the EC50 is the concentration at which the effect is half-maximal. As to B2, the EC50 worked out at 1.6 nM.

With B9, the EC50 amounted to 1.2 nM.

As to B3, the EC50 turned out to be 1.3 nM.

Regarding B4, the 50% effective concentration (EC50) was 0.45 nM.

Regarding B5, the half-maximal effective concentration (EC50) amounted to 6.8 nM.

For the molecule B6, the EC50 was 5.1 nM.

With B7, the concentration for a half-maximal effect (EC50) was 0.14 nM.

On to B8, for which the EC50 stood at 1.1 nM.

In a further assay the target is T4, human CD137-human Fc chimeric protein …. Kind of assay: HTRF binding assay. On the procedure: as §1
In turn, B1 showed an EC50 of 3.7 nM.

With B2, a half-maximal response (EC50) required 3.1 nM.

B9: the half-maximal effective concentration (EC50) is 1.3 nM.

Take B3: a half-maximal response (EC50) required 1.2 nM.

Turning to B4, it took 0.48 nM to reach a half-maximal effect (EC50).

B5 yielded an EC50 of 0.58 nM.

B6: the EC50 was 0.45 nM.

With B7, the EC50 came to 0.21 nM.

B8 registered an EC50 of 0.26 nM.

A further assay concerns the target T2, mouse CD137Fc protein (Acro Biosystems …). Kind of assay: HTRF binding assay. On the procedure:
as §1
With B1, the binding result is “no binding”.

B2: the binding result was “no binding”.

For the molecule B9, the binding result is given as “no binding”.

Turning to B3, the binding result is reported as “no binding”.

Take B4: the binding result was “no binding”.

B5: the binding result is reported as “no binding”.

For B6, the binding result was “no binding”.

As for B7, the binding result is recorded as “no binding”.

Regarding B8, the binding result is reported as “no binding”.

The next assay deals with T5, human CD137 expressed on the surface of CHO cells (human, UniProt Q07011 24-255).
T5 construct: Also used for the Jurkat reporter cells that express human CD137 (functional rows); also called CHO human CD137 cells; CHO huCD137
T5 sequence (Q07011 24-255 limits assumed): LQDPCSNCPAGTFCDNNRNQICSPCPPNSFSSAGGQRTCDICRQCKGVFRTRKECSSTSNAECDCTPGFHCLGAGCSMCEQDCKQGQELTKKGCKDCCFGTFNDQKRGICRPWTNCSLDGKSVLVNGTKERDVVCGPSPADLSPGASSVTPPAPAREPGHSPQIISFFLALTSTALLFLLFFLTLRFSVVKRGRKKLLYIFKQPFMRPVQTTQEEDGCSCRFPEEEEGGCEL
The assay can be described thus: FMAT ligand inhibition, CD137 Ligand on CHO human CD137 cells. A digest of the protocol: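 Purified Humabody VH was tested in an FMAT format for blocking human CD137 ligand binding to CHO cells expressing human CD137. FL2 median fluorescence was measured and background from excess non-Fc-tagged competitor wells subtracted. Signal was expressed as % of total binding control.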
As a reminder, the IC50 is the concentration needed to halve the response being measured. With B1, the 50% inhibitory concentration (IC50) was determined as 5.7 nM.

As to B2, the IC50 amounted to 19 nM.

B9 registered an IC50 of 2 nM.

B3: the IC50 was found to be 2 nM.

B4 returned an IC50 of 1.2 nM.

The molecule B5 returned an IC50 of 1.6 nM.

As to B6, the IC50 came out at 1.2 nM.

B7 showed an IC50 of 1.5 nM. The IC50 values of the last two molecules are within 1.5-fold of each other.

B8 registered an IC50 of 1.1 nM.

The target of the next assay is T3, human GITR-Fc (R&D Systems cat no. …). Kind of assay: ELISA, coated GITR-Fc. On the procedure: Specificity of binding for CD137 over the tumour necrosis factor receptor family members OX40 and GITR (Glucocorticoid-induced TNFR-related) was determined using an ELISA assay. Nunc Maxisorp plates were coated with 1 ug/ml human CD137-Fc recombinant protein (Acro Biosystems 41B-H5258), human GITR-Fc (R&D Systems cat no. 689-GR) human OX40-Fc (R&D Systems cat no. 3388-OX) in sodium carbonate buffer overnight at 4° C. then washed twice with PBS. Non-specific protein interactions were blocked by incubation with 1% (w/v) skimmed milk powder (Marvel®) in PBS/0.1% Tween-20 for 1 hour at room temperature. Plates were washed twice with PBS then VH or antibody control (1 ug/ml) added for 1 hour at room temperature. Following three washes with PBS/0.1% Tween-20 a 1:1000 dilution of anti His-HRP (VH detection) or anti mouse-HRP (positive control mouse monoclonal antibody detection) was added in 1% Marvel/PBS/0.1% Tween-20. The detection antibodies were allowed to bind for 1 hour at room temperature then the plates were washed twice in PBS/0.1% Tween-20 and once in PBS. The ELISA was developed using TMB substrate and the reaction was stopped by the addition of 50 ul 0.5M H₂SO₄ solution. The absorbance at 450 nm was measured using the BMG Pherastar.
For orientation: An ELISA detects its analyte on a solid surface through an enzyme-linked reagent.
On to B1, for which the binding result was “no binding (tested: 1 ug/ml)”.

Regarding B2, the binding result is on record as “no binding (tested: 1 ug/ml)”.

On to B9, for which the binding result is “no binding (tested: 1 ug/ml)”.

Regarding B3, the binding result is “no binding (tested: 1 ug/ml)”.

B4: the binding result is given as “no binding (tested: 1 ug/ml)”.

On to B5, for which the binding result is listed as “no binding (tested: 1 ug/ml)”.

For the molecule B6, the binding result is on record as “no binding (tested: 1 ug/ml)”.

Regarding B7, the binding result is given as “no binding (tested: 1 ug/ml)”.

In the case of B8, the binding result is on record as “no binding (tested: 1 ug/ml)”.
